According to paper PMC4266902, “Néstor-Guillermo Progeria Syndrome: a biochemical insight into Barrier-to-Autointegration Factor 1, alanine 12 threonine mutation” (BMC Molecular Biology, 2014):
Where a chain is given by its changes, count along the chain named. Numbers in names are those of the source.

Assays:
[1] = molecular target: the molecule itself; assay: SEC; gel filtration of recombinant HexaHis BANF1, absorbance at 280 nm against elution volume; column calibrated with carbonic anhydrase (29 kDa) and myoglobin (17 kDa)
[2] = molecular target: T1, BANF1 WT (UniProt O75531 1-89); assay: EMSA; 0-1 uM protein, 10 nM DNA, 30 min 4 C; 10 mM Tris-HCl pH 7.0, 20 mM NaCl, 100 ng/mL BSA, 5 mM DTT, 30 min at 4 C; 7% PAGE 0.5x TBE at 4 C (short DNA) or 0.6% agarose 1x TBE (plasmid); conditions: protein: recombinant; tags: N-terminal His6; label: 5'-FAM on strand 1; blunt
T1 sequence: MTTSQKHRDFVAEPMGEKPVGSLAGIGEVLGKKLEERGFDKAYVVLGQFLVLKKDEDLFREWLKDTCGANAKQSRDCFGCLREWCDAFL

B1: recombinant HexaHis-tagged wild type BANF1 (Barrier-to-Autointegration Factor 1) (natural protein, human, UniProt O75531 1-89, looked up)
chain: T1 sequence
notes: Barrier-to-Autointegration Factor 1 (BANF1, BAF1), human, 89 amino acid residues; BANF1 CDS sub-cloned into pEX-N-His (Origene); also called BANF1 WT; WT BANF1; not shown: His6, N-terminal, kept
With B1 the “stoichiometry N” value [1] was 2.

B2: recombinant HexaHis-tagged A12T BANF1 (natural protein, human, UniProt O75531 1-89, looked up)
chain: T1 sequence with A12T
notes: Barrier-to-Autointegration Factor 1 (BANF1, BAF1), human, 89 amino acid residues; BANF1 CDS in pEX-N-His (Origene) with the patient mutation c.34G>A [p.A12T] made by site-directed mutagenesis; A12T is the mutation found in patients with Nestor-Guillermo Progeria Syndrome; also called BANF1 A12T; A12T mutant; not shown: His6, N-terminal, kept
With B2 the “stoichiometry N” value [1] was 2.

B3: FAM-labelled short dsDNA (dsDNA)
DNA 1: CTCTCCCTTCGCTCCTTTCCTCT
DNA 2: AGAGGAAAGGAGCGAAGGGAGAG
B3: binds [2].
